Reference: patent US20240158448A1, “MULTIVALENT NANO-'SELF' PEPTIDES AND USES THEREOF” (THE TRUSTEES OF THE UNIVERSITY OF PENNSYLVANIA, priority 2021, published 2024)
“Also recorded” adds a separate entry of the source. Non-standard residues stand in square brackets, D forms with d. Primed or numbered codes have the meaning given here. No end group written: not given here. PEG5′ = linker of 5 PEG units between residues

Columns and labels:
[1] = Pre-clinical safety: intravenous nS-FF injections in mice; assay type: in vivo, mouse
Method: FIGS. 23A-23D illustrate that pre-clinical assessments indicate nS-FF is safe in vivo Phase 1 pre-clinical trial: Intravenous injections of nS-FF were done for four consecutive days followed by blood withdrawal 24 hours after last injection.
Phase 1 clinical trials for safety of anti-CD47 in patients have shown that infusion into the bloodstream decreases RBC numbers (i.e. hematocrit) and increases reticulocytes (i.e. new RBCs), and related blood safety concerns apply to a bivalent CD47-binding protein made with SIRPα domains fused to a macrophage-binding domain (Fc domain). […] This corresponds to about 8 μM in the blood, assuming rapid mixing and no dilution within the ˜1.5 mL blood volume of the mouse. Withdrawal of ˜140 μL from this blood volume was necessary to obtain a complete hematology profile, and such a volume is expected to cause slight decreases in hematocrit and platelets as shown (FIGS. 23A-23B). Consistent with this loss, more RBCs should be produced in each mouse to compensate for the RBC loss, and the ˜30% increase in reticulocytes after the first two blood draws over 11 days (FIG. 23C) is similar to the prior amount of blood removed (˜300 μl/1500 μl). The mice (˜14 weeks) also continued to gain weight at the same rates (˜5% over 11 days) regardless of peptide injections. These changes are thus expected but, importantly, unaffected by the nSFF peptide, which establishes some safety.

[2] = tested on: human macrophages (opsonized K562 cancer cells); assay: Phagocytosis of opsonized K562 erythroleukemia cells by human macrophages; assay type: cell-based
Method: In vitro phagocytosis assay. Fresh human RBCs were washed twice with 50 mM EDTA (Thermo Fischer) in PBS (Gibco) then twice with 5% FBS in PBS. RBCs were opsonized with 20 μg/mL rabbit anti-human RBC antibody (Rockland) in 5% FBS for 1 hour at RT with shaking. For CD47 blocked RBCs, 5 μg/mL of mouse anti-human CD47 (B6H12; BD Biosciences) were added. Thereafter, RBCs were washed with PBS three times and stained with PKH26 dye (1:800 dilution in PBS; Sigma) for 1 hour at RT with shaking in the dark. RBCs were washed and resuspended in PBS.
THP-1 monocytes were PMA differentiated in RPMI for 48 hours. Macrophages were then washed with RPMI media three times. For SIRPα blocked THP-1 macrophages, 20 nM, 1 μM or 50 μM of the nano—Self peptides were incubated with the THP-1 macrophages for 1 hour at 37 ° C., 5% CO2 and 95% humidity. Those THP-Is were then washed with RPMI three times.
(§1) CO2 and 95% humidity. Macrophages were then washed with RPMI three times. Adherent and uninternalized RBCs were lysed with water for 30 seconds followed by immediate replacement with RPMI media. In order to distinguish remaining adherent RBCs from internalized RBCs, opsonized RBCs were stained with AlexaFluor 647 donkey anti-rabbit (binds to rabbit polyclonal opsonin on RBC; Invitrogen) IgG (1:1000) while unopsonized, CD47 blocked RBCs were stained with AlexaFluor 647 donkey anti-mouse (binds to mouse monoclonal anti-CD47 on RBCs; Invitrogen) IgG (1:1000) for 30 minutes. After washing, macrophages were fixed with 4% formaldehyde for 15 minutes at RT, washed with PBS, stained with 1 μg/mL Hoechst 33342, and then washed with PBS again. Fluorescence imaging was performed as described elsewhere herein and quantification was done using ImageJ. At least 200 cells were analyzed and experiments were repeated at least three times.
The anti-RBC successfully opsonized and triggered phagocytosis of K562 cells by macrophages (FIGS. 2A, 2F and 2E). […] Interaction of the nS peptides with K562 cells is likely minimal due to the relative lack of SIRPα expression. […] For both opsonized RBCs and opsonized K562s (FIGS. 2D, 2F), the hyperphagocytosis that is achieved with soluble F- and V-nS peptides matches the recently measured increases for disruption of both (i) the trans interactions between CD47 on a target and macrophage SIRPα and also, importantly, (ii) the cis interactions between CD47 and SIRPα on the same macrophage (FIG. 2G-left). Expression profiling of macrophages confirms these cells generally express CD47 at roughly similar levels to other cell types (FIG. 15). […] A preliminary conclusion is that nS-FF and the other substituted peptides, which were designed to bind SIRPα, inhibit both the cis and trans interactions between SIRPα and CD47 ([…]).

[3] = tested on: mouse J774A.1 macrophages; assay: In vitro phagocytosis assay: opsonized human RBCs engulfed by mouse J774A.1 macrophages; assay type: cell-based; settings: saturating / 50 μM peptide
Method: as §1, with “In vitro phagocytosis assay. […] For CD47 blocked RBCs, 5 μg/mL of mouse anti-human CD47 (B6H12; BD Biosciences) were added. Thereafter, RBCs were washed with PBS three times and stained with PKH26 dye (1:800 dilution in PBS; Sigma) for 1 hour at RT with shaking in the dark. RBCs were washed and resuspended in PBS. J774A.1 macrophages were plated for 24 hours in RPMI. For SIRPα blocked J774A.1 macrophages, the same peptide blocking procedure as described elsewhere herein was used with the addition of a positive control using 5 μg/mL rat anti-mouse SIRPα ([…]; BD Biosciences). […] CO2” for “CO2”

Substance	increase in reticulocytes ([1]; after the first two blood draws over 11 days, unaffected by peptide) [%]	safety: mouse hematology and body weight ([1]; four daily tail-vein injections of 1 mg/kg, 1 mg/kg)	body weight gain ([1]; over 11 days, same rates regardless of peptide injections) [%]	increase of phagocytosis relative to opsonized and CD47 blocked K562 cells ([2]; saturating peptide)	macrophages engulfing opsonized K562 cells at saturation ([2]; saturation) [%]	effect on phagocytosis of opsonized RBCs (words) [3]
(VTELFREG-PEG5)2-K (VTELFREG[PEG5′]K[PEG5′]GERFLETV; not fully specified; also: bivalent lysine core) [nS-FF, bivalent nS-F linked through PEG5 linkers to a C-terminal Lys]	~30	safe, with no anemia or weight loss; also recorded: no differences versus PBS vehicle control	~5	nearly doubled; also recorded: about two-fold	~40	
VTELTREG [nS-wt, 8-amino acid wild type nano-Self peptide from the CD47 loop, C-terminal amide]						matches anti-CD47 blockade effects
